Source: patent publication US20030003502A1 (published 2003)

Molecular target: T1, PhFc-Cε3/Cε41-222 (human, UniProt P01854 211-427, N-linked carbohydrate attached at N394 (NAG/MAN residues 694-699 in Table 1))
T1 construct: Fc fragment of human IgE (Cε3 and Cε4 domains); It is a dimer of two identical chains with an interchain disulfide near residue 329; Produced in Trichoplusia ni (Hi-5) insect cells; also called human IgE-Fc Cε3/Cε4 domains; IgE-Fc
Test: complex formation and co-crystallization, crystal form I
Method: The structure was determined by molecular replacement techniques as described in Methods. Manual model building was done with the program O¹⁸ and refinement carried out with CNS¹⁹. Current refinement statistics for the complex are shown in Table 3, with an overall R-free of 29.3% and R-cryst of 27.0% to 3.25 Å.
Human IgE-Fc Cε3/Cε4 domains and a carbohydrate mutant of the FcεRIα¹¹ were expressed in insect cells essentially as described for IgE-Fc Cε3/Cε4 in 60/189,403. Complexes of wt-Fc-Cε3/Cε4 and wt-FcεRIα produced only poorly diffracting crystals. Since the receptor is heavily glycosylated (˜33% carbohydrate by weight), and the carbohydrate sites are dispersed on the receptor surface, a subset of these attachment sites was removed to improve the protein crystallization. A previously-described carbohydrate mutant of the receptor¹⁷ lacking three of the seven wild type carbohydrate sites (residues 74, 135, and 140) located on both D1 and D2 in the receptor structure. The triple receptor mutant, FcεRIαΔ4-6 was subcloned into the pvl1392 baculovirus transfer vector and recombinant virus produced. The mutant receptor was active, expressed well and was purified by affinity chromatography similarly to the wt protein. […]

T1 sequence (P01854 other isoform, or with tags, fused parts or gaps limits assumed): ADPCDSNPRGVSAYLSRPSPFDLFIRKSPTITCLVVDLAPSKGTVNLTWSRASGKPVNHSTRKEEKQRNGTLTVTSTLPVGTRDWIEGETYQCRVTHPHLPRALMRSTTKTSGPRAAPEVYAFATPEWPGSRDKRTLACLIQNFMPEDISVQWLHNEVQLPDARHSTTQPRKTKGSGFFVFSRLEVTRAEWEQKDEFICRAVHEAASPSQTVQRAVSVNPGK

B1: PhFcεRIα1-176 (receptor)
chain: VPQKPKVSLNPPWNRIFKGENVTLTCNGNNFFEVSSTKWFHNGSLSEETNSSLNIVNAKFEDSGEYKCQHQQVNESEPVYLEVFSDWLLLQASAEVVMEGQPLFLRCHGWRNWDVYKVIYYKDGEALKYWYENHNISITNATVEDSGTYYCTGKVWQLDYESEPLNITVIKAPREK
modifications: N-linked carbohydrate (seven native attachment sites; about 33% carbohydrate by weight)
notes: also called hFcεRIα1-176 protein; wild type (wt) FcεRIα
  binding result: binds
